Assay results taken from patent US20240368223A1.
Bridges are numbered along the chain shown (N, C = ends). Primed or numbered codes have the meaning given here. The star is where a group is joined. Biotin = O=C1N[C@H]2[C@H](CS[C@H]2CCCCC(=O)*)N1; PEG4′ = amino-PEG4 spacer

How the values were obtained:
[1] = molecular target: human IgG (Chugai Pharmaceutical Co., Ltd.) (human); assay: SPR, BIAcore T200, IgG immobilised; 1:1 binding fit
[2] = molecular target: human IgG (Chugai Pharmaceutical Co., Ltd.) (human); assay: SPR, BIAcore T200, IgG immobilised; equilibrium value

B1: Type I IgG-binding peptide …-NH2 (peptide)
peptide: {Biotin-PEG4′}-GPDCAYHRGELVWCTFH-NH2
modifications: disulfide 4-14
What does the source list for B1?
Kd [1]: 9.1 nM; Kd [2]: 10 nM
